From publication PMC4582013
Like-named read-outs stand apart in the source and are kept apart here.

T1: DNA polymerase IV (Dpo4) (Sulfolobus solfataricus, UniProt Q97W02 1-352)
T1 sequence: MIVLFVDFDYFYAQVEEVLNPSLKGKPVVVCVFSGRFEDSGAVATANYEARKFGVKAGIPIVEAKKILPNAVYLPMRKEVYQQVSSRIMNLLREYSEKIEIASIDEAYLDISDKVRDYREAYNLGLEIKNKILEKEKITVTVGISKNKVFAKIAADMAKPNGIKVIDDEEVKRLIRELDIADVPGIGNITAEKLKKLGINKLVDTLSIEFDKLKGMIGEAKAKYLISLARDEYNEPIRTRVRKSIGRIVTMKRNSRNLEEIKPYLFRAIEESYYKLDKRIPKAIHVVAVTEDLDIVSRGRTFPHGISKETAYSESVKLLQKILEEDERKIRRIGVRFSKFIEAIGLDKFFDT

B1: 20/26-mer-dG1,8 (dsDNA)
DNA 1: AACGACGGCCAGTGAATTCG
DNA 2: CCCGCGCGAATTCACTGGCCGTCGTT
modifications: template G6 (from 5') is dG1,8 = 8-(deoxyguanosin-N2-yl)-1-aminopyrene; lesion is the templating base
B2: 21/26-mer-dG1,8 (dsDNA)
DNA 1: AACGACGGCCAGTGAATTCGC
DNA 2: CCCGCGCGAATTCACTGGCCGTCGTT
modifications: template G6 (from 5') is dG1,8 = 8-(deoxyguanosin-N2-yl)-1-aminopyrene; lesion paired with primer 3' end

Columns and labels:
[1] = target: T1, DNA polymerase IV (Dpo4); assay: EMSA
[2] = target: T1, DNA polymerase IV (Dpo4); assay: EMSA; remark: listed apart in the source

Binder	Kd [1] [nM]	Kd [2] [nM]
B1	9 ± 2	
B2		27 ± 3
